{
  "source": "patent US20240002532A1",
  "target": "HER2 (human epidermal growth factor receptor 2) (human) (UniProt P04626)",
  "test": "cell-based or functional assay",
  "data": [
    {"substance": "CasMab250 (H/L)-based CAR with medium spacer (IgG4 hinge & CH3 domain) and CD28-CD3ζ1XX intracellular signaling domains", "values": [
      {"measurement": "maximal cytolysis of SKOV3 tumor cells (xCELLigence, donor T cells, E:T 1:1)", "result": 90, "unit": "%"}
    ]}
  ]
}
